Reference: paper PMC12229607

Molecular target: human Fc gamma receptor FcγRIIIa, V158 allotype (human)
Assay: ELISA

human Fc gamma receptor FcγRIIIa, V158 allotype (human), sequence (P08637 17-208): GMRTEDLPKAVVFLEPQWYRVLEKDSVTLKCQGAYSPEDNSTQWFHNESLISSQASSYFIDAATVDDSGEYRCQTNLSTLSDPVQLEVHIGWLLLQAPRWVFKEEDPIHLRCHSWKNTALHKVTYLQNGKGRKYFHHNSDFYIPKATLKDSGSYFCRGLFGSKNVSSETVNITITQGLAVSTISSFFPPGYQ

| EC50 [nM] | Substance |
| --- | --- |
| 5.4 | commercial trastuzumab (antibody) |
| 28.5 | G2-hinge-Fc (E. coli-derived human IgG1 hinge-Fc bearing the G2 glycoform) (domain or fragment) |
